Among the data in US20260151519A1 (AKTIS ONCOLOGY, published 2026) are Kd and koff values, retold here.

Bridges are numbered along the chain shown (N, C = ends). Primed or numbered codes have the meaning given here. The star is where a group is joined. DOTA = O=C(O)CN1CCN(CC(=O)O)CCN(CC(=O)*)CCN(CC(=O)O)CC1; PEG4″ = 4(ethylene glycol); PEG4′ = not defined here

Assay [1] deals with T1, Human Nectin-4 expressed on cells (human, UniProt Q96NY8 32-510).
T1 construct: Endogenous on HT-1376 cells; also called endogenous Nectin-4 on HT-1376 cells; cell surface Nectin-4
T1 sequence: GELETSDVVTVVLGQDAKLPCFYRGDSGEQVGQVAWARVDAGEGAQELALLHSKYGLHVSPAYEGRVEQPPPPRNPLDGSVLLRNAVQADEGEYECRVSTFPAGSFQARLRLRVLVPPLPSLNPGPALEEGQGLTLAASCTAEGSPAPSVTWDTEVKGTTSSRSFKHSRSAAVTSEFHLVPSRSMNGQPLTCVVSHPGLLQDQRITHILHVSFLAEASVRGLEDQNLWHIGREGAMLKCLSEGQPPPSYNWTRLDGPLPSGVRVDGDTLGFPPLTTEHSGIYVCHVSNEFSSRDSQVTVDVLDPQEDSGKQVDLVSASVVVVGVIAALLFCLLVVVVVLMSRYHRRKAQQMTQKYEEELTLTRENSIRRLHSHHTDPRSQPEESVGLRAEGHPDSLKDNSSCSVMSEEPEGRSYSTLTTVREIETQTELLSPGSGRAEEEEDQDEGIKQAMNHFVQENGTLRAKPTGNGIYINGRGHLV
Nature of the assay: radioligand binding, 177Lu-labelled compound, HT-1376 cells. How it is done: On the day of assay, culture medium was removed and PBS was added to cells. Association kinetics were measured at three concentrations of radioligand, and this was performed by the addition of lutetium-177 radioconjugates to cells at various time points from 1 to 60 minutes.

Assay [2] deals with T2, Human Nectin-4 (human, UniProt Q96NY8 32-349, limits assumed).
T2 construct: Protein immobilised on the SPR chip; also called target protein
T2 sequence: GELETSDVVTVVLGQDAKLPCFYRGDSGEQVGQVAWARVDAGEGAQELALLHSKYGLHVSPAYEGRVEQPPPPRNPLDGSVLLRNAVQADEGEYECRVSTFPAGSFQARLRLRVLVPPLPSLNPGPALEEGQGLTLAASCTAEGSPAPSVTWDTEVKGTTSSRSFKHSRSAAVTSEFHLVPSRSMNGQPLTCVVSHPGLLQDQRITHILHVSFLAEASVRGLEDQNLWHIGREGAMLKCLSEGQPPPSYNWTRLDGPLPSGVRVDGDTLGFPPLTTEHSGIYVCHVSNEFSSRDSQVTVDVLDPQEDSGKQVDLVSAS
As to the kind of experiment: Table 2B (DELFIA or SPR).

Assay [3] addresses T2, Human Nectin-4. As to the kind of experiment: SPR, Biacore, 1:1 model, 25 C. How it is done: (§1) Peptide binding affinity to the target protein was measured by SPR using an SPR machine, such as a Biacore T200 instrument. The target protein was covalently coupled to a Biacore chip surface using free amine-coupling chemistry (NHS/EDC) and all uncoupled sites were blocked with ethanolamine. Free peptides were flowed over the target protein surface in increasing concentrations to measure association (Kₐ, 1/Ms⁻¹)) and dissociation (Kd, s⁻¹) to calculate the dissociation equilibrium constant (KD) using an appropriate binding model (see, e.g., Nikolas Stroth, J Biol Methods. 2016; 3 (1)).
(§2) In FIGS. 1A, 1B, 2A, and 2B, lines on graphs are labeled from top to bottom, beginning with letter “a,” and the corresponding concentration is noted to the right of the figure.
(SPR reads the build-up and loss of mass on a sensor chip optically.)

The target of a further assay is T3, Murine Nectin-4 (mouse, UniProt Q8R007 31-347, limits assumed).
T3 construct: Protein immobilised on the SPR chip; also called mouse Nectin-4
T3 sequence: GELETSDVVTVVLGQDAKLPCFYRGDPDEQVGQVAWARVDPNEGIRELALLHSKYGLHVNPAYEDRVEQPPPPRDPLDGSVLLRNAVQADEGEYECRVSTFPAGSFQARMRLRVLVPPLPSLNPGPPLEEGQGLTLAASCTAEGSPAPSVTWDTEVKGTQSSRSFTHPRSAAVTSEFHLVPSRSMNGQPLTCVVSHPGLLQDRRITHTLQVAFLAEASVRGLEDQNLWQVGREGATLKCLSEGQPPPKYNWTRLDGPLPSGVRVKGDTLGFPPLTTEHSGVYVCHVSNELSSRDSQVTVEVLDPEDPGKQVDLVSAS
As to the kind of experiment: SPR, Biacore, 1:1 model, 25 C. How it is done: as §1, §2

{DOTA-PEG4′}-CEYDEEFFTALKRLRGGDICYYIKKKFKKVPKLCIEEILDKLGC-NH2 (designed binder, cysteine pairing not given here; also: 177Lu label on DOTA) [C215]: the Kd (as a rule, the free concentration of one partner at which half of the binding sites on the other are occupied at equilibrium, for simple one-to-one binding) in assay [1] was determined as 5.01 nM.

{DOTA-PEG4″}-CEYDEEFFTALKRLRGGDICYYIKKKFDYLPKLCIEEILDNLGC-NH2 (designed binder, disulfide 1-34, 20-44; also: 177Lu-labelled in the radioligand assay) [C214]: binding in assay [1] was characterised by a dissociation constant (Kd) of 3.03 nM.

In turn, {DOTA-PEG4″}-CEYDEEFFTALKRLRGGDICYYIKKKFKKVPKLCIEEILDKLGC-NH2 (designed binder, disulfide 1-34, 20-44; also: 177Lu-labelled in radioligand assay) [C82] had a Kd in assay [1] of 14.1 nM.

Consider Ac-CEYDEEFFAGLKRLRGGDICYYIKKKFDKVPDLCIEEILDKLGC-OH (designed binder, disulfide 1-34, 20-44) [C9], for which the Kd with Human Nectin-4 [2] came to 7.5 nM; with Human Nectin-4 [3], 7.5 nM; in the assay with Murine Nectin-4, 7.83 nM. In addition, the koff – broadly, a measure of how fast the partners let go of each other – with Human Nectin-4 [3] came to 0.0227 s⁻¹; in the assay with Murine Nectin-4, 0.0213 s⁻¹.

Consider {DOTA-PEG4″}-CEYDEEFFAGLKRLRGGDICYYIKKKFDKVPDLCIEEILDKLGC-OH (designed binder, disulfide 1-34, 20-44; also: 138La complex of DOTA) [C91], for which the results for the Kd in the assay with Human Nectin-4 [3] and with Murine Nectin-4 were 17.9 nM and 24.6 nM, respectively. Moreover, the dissociation rate constant (koff) was 0.0297 s⁻¹ with Human Nectin-4 [3] and 0.0282 s⁻¹ in the assay with Murine Nectin-4.

Turning to {DOTA-PEG4″}-CEYDEEFFAGLKRLRGGDICYYIKKKFDKVPDLCIEEILDKLGC-OH (designed binder, disulfide 1-34, 20-44) [C12], the Kd in the assay with Human Nectin-4 [2] is 10.5 nM; in the assay with Murine Nectin-4, 2.94 nM. The koff worked out at 0.017 s⁻¹ with Human Nectin-4 [3] and 0.0262 s⁻¹ with Murine Nectin-4.
